Results published in paper PMC4274631 (RNA, 2015).
Like-named read-outs stand apart in the source and are kept apart here. Where no end group is shown, it is not given here. fluorescein = fluorescein label

Assays:
[1] = tested on: S. pombe RNA triphosphatase Pct1; settings: ref Pei et al. 2001b; cited from earlier work
[2] = biological target: T1, Pct1 (Schizosaccharomyces pombe, UniProt Q9P6Q6); format: binding, S. pombe; settings: 180-fold higher than Kd for Spt5-(801–898)
T1 sequence (Q9P6Q6 1-303): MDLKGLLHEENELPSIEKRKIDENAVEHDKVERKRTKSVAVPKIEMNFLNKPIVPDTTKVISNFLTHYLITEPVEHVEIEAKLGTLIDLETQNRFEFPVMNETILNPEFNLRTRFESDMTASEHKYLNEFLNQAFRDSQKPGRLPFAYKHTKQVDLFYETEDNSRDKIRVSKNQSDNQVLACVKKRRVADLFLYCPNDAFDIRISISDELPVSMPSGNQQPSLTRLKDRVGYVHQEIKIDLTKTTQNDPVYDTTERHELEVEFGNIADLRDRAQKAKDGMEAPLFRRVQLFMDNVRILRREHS

[3] = tested on: Plus3 domain of Rtf1; settings: phosphorylated CTR peptide; pdb 4L1U; ref Wier et al. 2013; cited from earlier work
[4] = biological target: T2, S. pombe RNA triphosphatase Pct1 (wild type) (S. pombe, UniProt Q9P6Q6 1-303); assay: crystal structure
T2 sequence (looked up): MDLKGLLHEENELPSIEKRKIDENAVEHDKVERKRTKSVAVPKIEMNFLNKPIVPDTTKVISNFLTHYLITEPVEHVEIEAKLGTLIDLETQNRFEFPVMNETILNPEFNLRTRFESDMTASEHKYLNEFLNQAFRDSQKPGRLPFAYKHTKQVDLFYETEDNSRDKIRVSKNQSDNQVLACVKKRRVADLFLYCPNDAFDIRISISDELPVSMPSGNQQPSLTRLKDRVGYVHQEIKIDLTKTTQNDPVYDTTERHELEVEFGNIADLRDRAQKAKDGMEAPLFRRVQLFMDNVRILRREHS

[5] = biological target: T2, S. pombe RNA triphosphatase Pct1 (wild …); assay: fluorescence polarisation
[6] = biological target: T3, S. pombe RNA triphosphatase Pct1 M100A (S. pombe, UniProt Q9P6Q6 1-303, M100A); assay: fluorescence polarisation
T3 sequence (looked up): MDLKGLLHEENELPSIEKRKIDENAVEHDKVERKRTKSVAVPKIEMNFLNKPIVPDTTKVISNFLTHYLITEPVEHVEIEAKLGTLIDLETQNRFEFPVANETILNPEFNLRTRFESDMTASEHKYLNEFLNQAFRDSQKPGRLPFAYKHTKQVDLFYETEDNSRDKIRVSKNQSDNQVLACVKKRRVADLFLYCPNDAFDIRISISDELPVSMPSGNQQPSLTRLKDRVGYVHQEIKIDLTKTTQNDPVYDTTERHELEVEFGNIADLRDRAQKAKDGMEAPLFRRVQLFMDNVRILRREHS

[7] = biological target: T4, S. pombe RNA triphosphatase Pct1 M100R (S. pombe, UniProt Q9P6Q6 1-303, M100R); assay: fluorescence polarisation
T4 sequence (looked up): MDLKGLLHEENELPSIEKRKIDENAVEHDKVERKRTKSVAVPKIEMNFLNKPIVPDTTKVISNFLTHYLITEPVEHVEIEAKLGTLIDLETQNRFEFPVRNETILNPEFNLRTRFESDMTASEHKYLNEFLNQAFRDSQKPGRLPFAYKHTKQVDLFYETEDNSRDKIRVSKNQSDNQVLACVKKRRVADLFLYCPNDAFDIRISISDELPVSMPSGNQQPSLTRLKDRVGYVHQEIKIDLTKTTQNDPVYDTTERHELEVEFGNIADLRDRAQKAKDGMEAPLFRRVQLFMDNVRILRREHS

[8] = biological target: T2, S. pombe RNA triphosphatase Pct1 (wild …); assay: fluorescence polarisation; remark: listed apart in the source
[9] = biological target: T5, Pct1 M100A (Schizosaccharomyces pombe, UniProt Q9P6Q6, M100A); assay: Fluorescence polarization binding of Spt5-; design: species or system S. pombe; settings: Pct1 M100A versus wild-type Pct1
T5 sequence (Q9P6Q6 1-303 M100A): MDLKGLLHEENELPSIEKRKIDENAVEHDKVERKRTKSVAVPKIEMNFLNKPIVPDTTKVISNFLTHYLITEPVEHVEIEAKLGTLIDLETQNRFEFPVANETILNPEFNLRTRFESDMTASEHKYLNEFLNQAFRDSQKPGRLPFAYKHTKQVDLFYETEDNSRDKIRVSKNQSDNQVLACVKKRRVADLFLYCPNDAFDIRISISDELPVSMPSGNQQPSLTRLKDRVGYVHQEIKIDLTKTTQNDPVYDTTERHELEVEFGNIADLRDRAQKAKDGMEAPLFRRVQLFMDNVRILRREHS

[10] = biological target: T2, S. pombe RNA triphosphatase Pct1 (wild …); assay: fluorescence polarisation; remark: listed apart in the source

In the case of `O=P(O)(O)OP(=O)(O)OP(=O)(O)O` [tripolyphosphate], the competitive inhibition [1] is listed as “high-affinity competitive inhibitor”.

In the case of SGSKTPAWNSGSKTPAWNSGSK, the “Kd relative to the Kd of Pct1 for the longer Spt5-(801–898) ligand” value [2] is reported as 180 fold.

In the case of SGSRTPPMYGSQ, the “binding to Rtf1 Plus3 domain in crystal” value [3] is given as “bound”.

For TPAWNSGSRTPAWNSGSK [18-mer Spt5-CTD peptide TPAWNSGSRTPAWNSGSK, Spt5-(845-862)], the “stoichiometry N” value [4] was 2 peptides per Pct1 homodimer.

Molecule SGSKTPAWNSGSKTPAWNSGSK [unphosphorylated 22-amino acid synthetic Spt5 CTD peptide SGSKTPAWNSGSKTPAWNSGSK (untagged)] has a Ki [5] of 79 ± 9 µM.

B1: BODIPY-FL-N(Cys)-Spt5-(801-898) (domain or fragment, S. pombe)
chain: CISTADGPNVPNWAQGARTPAVANGSRTPAWNTGSRTPAWNSGSKTPAWNSGSRTPAWNSGNKTPAWNAGSRTPAWNSGNKTPAWNVGNKTPAWNSGAK
modifications: BODIPY-FL at the N-terminus via maleimide chemistry (on the added N-terminal cysteine)
B1 showed a Kd [6] of 1400 ± 150 nM, a Kd [7] of 21.4 ± 2.4 µM and a Kd [8] of 680 ± 100 nM.

B2: Spt5-(801–898): purified recombinant Spt5-(801–898) protein, comprising 10 nonamer repeats, labeled at the N-terminus with BODIPY-FL (protein)
chain: CISTADGPNVPNWAQGARTPAVANGSRTPAWNTGSRTPAWNSGSKTPAWNSGSRTPAWNSGNKTPAWNAGSRTPAWNSGNKTPAWNVGNKTPAWNSGAK
modifications: BODIPY-FL at the N-terminus via maleimide chemistry (on the added N-terminal cysteine)
In the case of B2, the “effect of M100A on Spt5 CTD binding” value [9] is reported as “twofold”.

fluorescein-SGSKTPAWNSGSKTPAWNSGSK [fluorescein-labeled 22-amino acid synthetic Spt5 CTD peptide SGSKTPAWNSGSKTPAWNSGSK] gave a Kd [10] of 124 ± 10 µM.
